According to patent US20240116987A1 (UNIVERSIT CATHOLIQUE DE LOUVAIN, published 2024):
One block for each binder: values may come before it. Ends that are not written are not given here.

What was measured:
[1] = target: LDH-5 (tetramer of human LDH-M subunits, LDH-M4) (human, UniProt P00338 2-332); assay: cell-based or functional assay
[2] = target: T1, LDH-Htr (truncated human LDH-H, dimeric) (human, UniProt A5A6N7 21-334 (Pan troglodytes entry)); assay: MST, labelled LDH-Htr 100 nM, 1.5 s on time, n=3
T1 construct: Recombinant from E. coli; Mainly a dimer, in equilibrium with a weak tetramer; In MST it was labelled with Red-dye-NHS and used at 100 nM; also called hLDH-Htr; truncated LDH-H; not shown: N-terminal 6-His tag from pET-28a (NdeI site)
Experimental: MST measurements were performed on a Nanotemper® Monolith NT.115 instrument (NanoTemper Technologies®) using Red-dye-NHS fluorescent labelling. […] Measurements were performed in 50 mM sodium phosphate, pH 7.6, and 100 mM NaCl containing 0.01% Tween-20 in standard-treated capillaries (NanoTemper Technologies®). The final concentration of proteins in the assay was 100 nM. Ligands were titrated in 1:1 dilutions following manufacturer's recommendations. Experiments were performed in triplicates using 40% LED power, high MST power, […] and Laser off time 3 s. Poypeptides were evaluated for their thermophoretic pattern, and Kd's were extracted from raw data at a 1.5 s MST on time following the manufacturer's instructions.

T1 sequence (A5A6N7 21-334): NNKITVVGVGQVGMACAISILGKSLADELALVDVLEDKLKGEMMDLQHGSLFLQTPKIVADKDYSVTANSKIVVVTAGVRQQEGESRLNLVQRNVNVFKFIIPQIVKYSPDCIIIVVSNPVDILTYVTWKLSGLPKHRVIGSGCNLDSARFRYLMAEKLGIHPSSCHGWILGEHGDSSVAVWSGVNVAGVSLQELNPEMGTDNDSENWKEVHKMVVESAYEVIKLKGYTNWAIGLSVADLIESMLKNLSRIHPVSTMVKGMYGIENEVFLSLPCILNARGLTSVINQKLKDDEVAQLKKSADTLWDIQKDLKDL

Kd [2]: 240 µM
Binder: Ac-GEMMDLQHGSLFLQTP-NH2 (Synthetic peptide bought from Genecust) [polypeptide GP-16]
EC50 of ΔTm (NanoDSF destabilization) of tetrameric LDH-5 (300 nM) [1]: 262 µM

Kd [2]: 156 µM
B1: polypeptide LP-22 (peptide)
peptide: LEDKLKGEMMDLQHGSLFLQTP-NH2
notes: Synthetic peptide bought from Genecust; also called "cluster B1"-derived polypeptide
